The results in this text go back to patent CN106046162A (DONG ZHUMING BIOTECH CO LTD, dated 2016).

Experiment [1] deals with T1, 人PD-1-Fc重组蛋白(RD) (human, UniProt Q15116 21-167, limits assumed).
T1 construct: Bought recombinant protein (RD); also called hPD-1-Fc; hPD-1; not shown: Fc part of the bought fusion protein
Put plainly: ELISA, 3-fold dilutions of the antibody in 12 steps, goat anti-mouse IgG-Fc-HRP; the text prints the coat as hPD-L1-Fc but reports affinity for PD-1. Background: An ELISA detects its analyte on a solid surface through an enzyme-linked reagent.

Experiment [2] concerns the target T1, 人PD-1-Fc重组蛋白(RD). Description: Biacore blocking assay, hPD-1-Fc on the chip, 2-fold dilutions of the antibody in 7 steps; blocks PD-1 binding to B7-H1.

In general, EC50 refers to the concentration giving half of the maximal effect. High values mean lower potency in that assay, low ones higher potency in that assay.

T1 sequence (Q15116 21-167 limits assumed): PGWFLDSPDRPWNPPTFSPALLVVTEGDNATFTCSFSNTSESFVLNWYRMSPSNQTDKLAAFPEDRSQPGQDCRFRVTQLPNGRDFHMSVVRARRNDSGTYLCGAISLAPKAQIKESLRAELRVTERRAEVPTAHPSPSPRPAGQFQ

B1: 抗人PD-1单克隆抗体2-189-H-1 (antibody, V domains shown)
VH: QVQLKESGPGLVAPSQSLSITCTVSGFSLTTYGVSWVRQPPGKGLEWLGVIWGDGSTDYHSVLISRLSITKDISKSQVFLKLNSLQSDDTATYYCAQQGSRGDYWGQGTTLTVSS
VL: DVLLTQTPLSLPVSLGDQASISCRSSQTIVHSNGITYLEWYLQKPGQSPKALISKVSNRLSGVPDRFSGSGSGTDFTLKISRVEAEDLGVYYCFQGSHIPYTFGGGTKLEIK
notes: Mouse hybridoma antibody (CCTCC C2015160), purified on Protein A; also called 本抗体; hPD-1抗体
B1: the values for the EC50 with 人PD-1-Fc重组蛋白(RD) [1] and with 人PD-1-Fc重组蛋白(RD) [2] were 1.07 nM and 64.4 nM, respectively.
